Assays:
[1] = target: YFP-IP3R type 1; assay: acceptor photobleaching FRET, fixed COS-7 cells expressing YFP-IP3R and CFP-Bcl-2
[2] = target: Bcl-2 exogenously expressed in WEHI7.2 cells (UniProt P10415 1-239); assay: cell-based or functional assay
Sequence of Bcl-2 exogenously expressed in WEHI7.2 cells (P10415 whole entry): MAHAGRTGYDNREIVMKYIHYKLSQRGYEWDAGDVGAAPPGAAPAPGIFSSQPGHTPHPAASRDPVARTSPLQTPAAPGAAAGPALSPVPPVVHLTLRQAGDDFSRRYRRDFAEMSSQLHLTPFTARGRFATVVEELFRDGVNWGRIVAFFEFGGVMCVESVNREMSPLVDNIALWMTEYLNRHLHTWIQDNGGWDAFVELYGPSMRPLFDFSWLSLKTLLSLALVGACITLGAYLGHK

Row | increase of CFP signal following YFP bleaching (FRET) [1] [%] | anti-CD3-induced apoptosis in Bcl-2(+) WEHI7.2 cells, fold enhancement [2] [fold] | Molecule
1 | 28 |  | CFP-Bcl-2 (from UniProt P10415 1-239)
2 |  | 2 | NVYTEIKCNSLLPLDDIVRV [peptide 2, aa 1389-1408 of IP3R]
